Legend:
c-Src SH2 = assay: SH2 binding enrichment of the phosphorylated peptide, bacterial display (enrichment ratio); higher = better substrate or ligand; peptides without Tyr show the background
SHP2-C SH2 = assay: as above
Grb2 SH2 = Grb2 SH2 (UniProt P62993); assay: as above
Fer (mouse) = assay: phosphorylation enrichment, bacterial display (enrichment ratio); higher = better substrate or ligand; peptides without Tyr show the background
EPHB2 = EPHB2 (UniProt P29323); assay: as above
MERTK = MERTK (UniProt Q12866); assay: as above
Sequence of MERTK (Q12866 whole entry, looked up): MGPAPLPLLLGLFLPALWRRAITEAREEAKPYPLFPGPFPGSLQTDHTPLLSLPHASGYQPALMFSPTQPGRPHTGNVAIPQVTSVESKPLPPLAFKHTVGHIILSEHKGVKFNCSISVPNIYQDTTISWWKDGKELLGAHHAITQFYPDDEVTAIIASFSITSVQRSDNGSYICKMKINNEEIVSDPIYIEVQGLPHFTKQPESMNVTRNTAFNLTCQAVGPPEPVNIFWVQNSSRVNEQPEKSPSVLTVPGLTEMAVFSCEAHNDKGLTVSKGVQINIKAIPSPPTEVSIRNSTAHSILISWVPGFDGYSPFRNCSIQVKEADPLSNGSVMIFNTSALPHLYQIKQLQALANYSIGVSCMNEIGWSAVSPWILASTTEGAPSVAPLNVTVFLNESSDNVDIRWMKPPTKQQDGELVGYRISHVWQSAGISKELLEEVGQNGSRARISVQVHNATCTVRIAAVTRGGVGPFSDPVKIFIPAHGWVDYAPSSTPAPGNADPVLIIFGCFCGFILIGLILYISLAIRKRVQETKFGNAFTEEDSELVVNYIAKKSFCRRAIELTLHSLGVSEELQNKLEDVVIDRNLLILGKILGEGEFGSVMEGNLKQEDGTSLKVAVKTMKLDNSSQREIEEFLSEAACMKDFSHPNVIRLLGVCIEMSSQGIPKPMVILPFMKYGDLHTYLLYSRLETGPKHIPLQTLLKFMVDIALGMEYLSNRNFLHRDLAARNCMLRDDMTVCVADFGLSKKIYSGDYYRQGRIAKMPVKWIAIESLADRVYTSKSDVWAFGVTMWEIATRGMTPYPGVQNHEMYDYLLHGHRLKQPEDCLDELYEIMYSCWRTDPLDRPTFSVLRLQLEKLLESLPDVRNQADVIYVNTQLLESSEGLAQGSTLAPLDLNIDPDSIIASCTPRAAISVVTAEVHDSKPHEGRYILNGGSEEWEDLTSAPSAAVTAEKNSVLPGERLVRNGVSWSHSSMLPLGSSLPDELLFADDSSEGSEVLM

Fyn = Fyn (UniProt P06241); assay: as above
Sequence of Fyn (P06241 whole entry, looked up): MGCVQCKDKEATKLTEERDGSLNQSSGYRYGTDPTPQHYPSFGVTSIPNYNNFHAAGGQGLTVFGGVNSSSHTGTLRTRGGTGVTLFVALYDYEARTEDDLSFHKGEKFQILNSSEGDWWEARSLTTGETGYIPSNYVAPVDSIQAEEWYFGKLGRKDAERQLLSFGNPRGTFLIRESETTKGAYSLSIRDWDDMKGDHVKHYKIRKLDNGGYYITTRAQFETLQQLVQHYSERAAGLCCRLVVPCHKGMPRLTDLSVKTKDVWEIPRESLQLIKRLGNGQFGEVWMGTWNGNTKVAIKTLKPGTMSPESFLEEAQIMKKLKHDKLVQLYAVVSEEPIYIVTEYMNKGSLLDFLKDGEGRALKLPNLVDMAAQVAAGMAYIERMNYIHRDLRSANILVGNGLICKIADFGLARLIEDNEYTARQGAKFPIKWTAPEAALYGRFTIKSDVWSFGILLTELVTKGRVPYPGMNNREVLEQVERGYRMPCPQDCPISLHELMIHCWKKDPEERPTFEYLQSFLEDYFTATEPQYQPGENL

Hck = Hck (UniProt P08631); assay: as above
Sequence of Hck (P08631 whole entry, looked up): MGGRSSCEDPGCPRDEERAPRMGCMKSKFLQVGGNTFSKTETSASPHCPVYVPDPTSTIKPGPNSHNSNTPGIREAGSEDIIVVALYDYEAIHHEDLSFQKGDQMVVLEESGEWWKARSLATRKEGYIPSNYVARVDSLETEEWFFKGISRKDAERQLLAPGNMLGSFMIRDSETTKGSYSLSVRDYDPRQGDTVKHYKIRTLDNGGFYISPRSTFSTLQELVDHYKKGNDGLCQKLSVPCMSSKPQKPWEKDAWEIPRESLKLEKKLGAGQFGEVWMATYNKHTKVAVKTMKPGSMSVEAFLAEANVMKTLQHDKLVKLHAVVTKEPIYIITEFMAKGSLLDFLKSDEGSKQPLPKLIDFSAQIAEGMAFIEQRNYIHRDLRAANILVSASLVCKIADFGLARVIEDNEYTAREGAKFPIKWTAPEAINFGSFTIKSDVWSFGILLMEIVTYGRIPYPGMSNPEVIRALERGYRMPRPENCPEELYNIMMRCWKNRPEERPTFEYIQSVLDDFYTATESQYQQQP

FGFR3 = FGFR3 (UniProt P22607); assay: as above
Sequence of FGFR3 (P22607 whole entry, looked up): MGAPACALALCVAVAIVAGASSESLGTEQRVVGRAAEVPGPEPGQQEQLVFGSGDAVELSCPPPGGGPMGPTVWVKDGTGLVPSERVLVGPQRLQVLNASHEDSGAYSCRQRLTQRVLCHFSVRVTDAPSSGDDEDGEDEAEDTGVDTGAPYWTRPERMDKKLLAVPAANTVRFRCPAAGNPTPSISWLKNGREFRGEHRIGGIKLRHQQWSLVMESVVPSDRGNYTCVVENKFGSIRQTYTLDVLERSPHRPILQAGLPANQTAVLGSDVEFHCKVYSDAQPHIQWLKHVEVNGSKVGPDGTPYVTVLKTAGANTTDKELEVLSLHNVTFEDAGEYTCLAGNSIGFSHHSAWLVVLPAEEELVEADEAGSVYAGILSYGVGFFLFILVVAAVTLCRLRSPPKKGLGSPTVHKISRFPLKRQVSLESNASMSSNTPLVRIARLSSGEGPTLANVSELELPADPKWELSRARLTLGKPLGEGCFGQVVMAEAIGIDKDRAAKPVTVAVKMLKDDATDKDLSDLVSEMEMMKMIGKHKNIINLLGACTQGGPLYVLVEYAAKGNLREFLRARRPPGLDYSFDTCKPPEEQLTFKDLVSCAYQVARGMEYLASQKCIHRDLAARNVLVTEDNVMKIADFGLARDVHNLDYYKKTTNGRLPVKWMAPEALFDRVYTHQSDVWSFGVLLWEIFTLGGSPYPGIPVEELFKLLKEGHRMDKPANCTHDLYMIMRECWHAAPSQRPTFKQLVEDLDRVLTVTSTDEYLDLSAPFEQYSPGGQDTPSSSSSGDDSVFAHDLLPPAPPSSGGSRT

c-Src = assay: as above
AncSZ = assay: as above
Jak2 = Jak2 (UniProt O60674); assay: as above
Sequence of Jak2 (O60674 whole entry, looked up): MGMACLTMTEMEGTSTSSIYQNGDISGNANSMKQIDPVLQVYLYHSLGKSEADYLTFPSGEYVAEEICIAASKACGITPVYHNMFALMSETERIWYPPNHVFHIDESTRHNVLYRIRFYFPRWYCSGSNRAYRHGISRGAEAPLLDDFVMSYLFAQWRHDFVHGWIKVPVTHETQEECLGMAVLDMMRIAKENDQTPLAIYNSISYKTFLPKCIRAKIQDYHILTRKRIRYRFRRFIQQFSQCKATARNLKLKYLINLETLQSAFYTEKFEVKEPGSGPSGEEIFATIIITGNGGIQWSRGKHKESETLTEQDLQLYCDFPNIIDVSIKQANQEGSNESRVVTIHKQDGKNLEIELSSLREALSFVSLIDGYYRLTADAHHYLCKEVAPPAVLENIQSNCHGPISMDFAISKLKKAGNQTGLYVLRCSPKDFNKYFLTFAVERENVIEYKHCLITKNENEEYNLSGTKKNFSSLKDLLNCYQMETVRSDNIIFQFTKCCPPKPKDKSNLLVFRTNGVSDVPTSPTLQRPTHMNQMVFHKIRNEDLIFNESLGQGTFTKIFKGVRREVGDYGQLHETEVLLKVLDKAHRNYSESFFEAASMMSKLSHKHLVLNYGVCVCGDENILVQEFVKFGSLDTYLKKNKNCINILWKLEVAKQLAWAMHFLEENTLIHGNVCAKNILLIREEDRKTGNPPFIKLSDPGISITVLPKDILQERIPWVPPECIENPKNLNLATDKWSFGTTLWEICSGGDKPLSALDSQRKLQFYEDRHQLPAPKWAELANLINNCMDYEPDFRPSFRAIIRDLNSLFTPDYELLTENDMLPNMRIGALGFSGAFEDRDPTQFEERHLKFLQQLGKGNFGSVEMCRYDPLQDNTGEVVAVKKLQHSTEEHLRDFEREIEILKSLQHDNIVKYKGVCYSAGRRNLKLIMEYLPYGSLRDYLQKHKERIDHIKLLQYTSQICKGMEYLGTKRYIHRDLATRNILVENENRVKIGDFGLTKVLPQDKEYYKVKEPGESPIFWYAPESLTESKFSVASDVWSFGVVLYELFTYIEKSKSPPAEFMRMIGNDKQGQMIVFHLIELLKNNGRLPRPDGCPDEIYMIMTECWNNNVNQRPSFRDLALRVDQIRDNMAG

EPHB1 = EPHB1 (UniProt P54762); assay: as above
FGFR1 = FGFR1 (UniProt P11362); assay: as above
Sequence of FGFR1 (P11362 whole entry, looked up): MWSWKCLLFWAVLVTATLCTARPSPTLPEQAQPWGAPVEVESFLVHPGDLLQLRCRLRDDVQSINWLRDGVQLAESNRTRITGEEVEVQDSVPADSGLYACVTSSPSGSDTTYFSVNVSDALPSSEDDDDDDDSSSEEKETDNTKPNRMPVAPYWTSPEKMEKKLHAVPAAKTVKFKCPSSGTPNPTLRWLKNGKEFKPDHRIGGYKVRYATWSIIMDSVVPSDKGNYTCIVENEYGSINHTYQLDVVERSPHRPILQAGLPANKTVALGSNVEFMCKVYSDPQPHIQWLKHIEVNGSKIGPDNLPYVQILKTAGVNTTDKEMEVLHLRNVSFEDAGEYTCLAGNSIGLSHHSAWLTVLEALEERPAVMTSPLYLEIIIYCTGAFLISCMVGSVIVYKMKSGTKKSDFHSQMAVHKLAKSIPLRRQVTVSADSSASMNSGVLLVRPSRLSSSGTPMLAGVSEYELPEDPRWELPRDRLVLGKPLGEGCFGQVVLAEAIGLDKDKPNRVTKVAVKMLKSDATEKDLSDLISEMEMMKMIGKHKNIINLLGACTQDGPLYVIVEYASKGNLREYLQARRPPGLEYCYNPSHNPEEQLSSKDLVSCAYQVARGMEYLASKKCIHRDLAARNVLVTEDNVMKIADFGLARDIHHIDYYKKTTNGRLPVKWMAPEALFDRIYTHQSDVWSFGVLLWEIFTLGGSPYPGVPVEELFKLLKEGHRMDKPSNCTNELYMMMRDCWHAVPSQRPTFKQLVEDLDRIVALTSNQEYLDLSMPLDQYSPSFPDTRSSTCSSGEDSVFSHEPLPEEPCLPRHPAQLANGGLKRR

Fes = Fes (UniProt P07332); assay: as above
c-Abl (mouse) = assay: as above
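For SH2 binding enrichment of the phosphorylated peptide, bacterial display in this document: peptide library displayed on the E. coli surface as eCPX fusions, selected cells deep-sequenced, score is each peptide's frequency after selection divided by its frequency in the input.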
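For phosphorylation enrichment, bacterial display in this document: 11-residue human phosphosite peptides and single-mutation variants displayed on the E. coli surface, counted by deep sequencing, each peptide's frequency after selection divided by its frequency in the unselected input library; frequency after pTyr selection over input frequency; kinase dosed for 20-30% of maximal phosphorylation in three min.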

Row | SH2 binding enrichment (c-Src SH2) | SH2 binding enrichment (SHP2-C SH2) | SH2 binding enrichment (Grb2 SH2) | Sequence | phosphorylation enrichment (Fer (mouse)) | phosphorylation enrichment (EPHB2) | phosphorylation enrichment (MERTK) | phosphorylation enrichment (Fyn) | phosphorylation enrichment (Hck) | phosphorylation enrichment (FGFR3) | phosphorylation enrichment (c-Src) | phosphorylation enrichment (AncSZ) | phosphorylation enrichment (Jak2) | phosphorylation enrichment (EPHB1) | phosphorylation enrichment (FGFR1) | phosphorylation enrichment (Fes) | phosphorylation enrichment (c-Abl (mouse))
1 | 0.467 | 0.747 | 0.553 | HEEDNYIEMIP [NWD2_Y566_L569M] | 0.938 | 1.19 | 1.13 | 0.67 | 0.822 | 3.82 | 1.16 | 3.02 | 2.39 | 1.68 | 3.93 | 2.85 | 1.86
2 | 2.29 | 0.667 | 0.817 | HEVHIYEKSGA [ARPC1B_Y35] | 1.03 | 0.611 | 0.77 | 1.01 | 1.68 | 0.993 | 1.48 | 1.38 | 1.06 | 1.1 | 0.673 | 1.74 | 1.69
3 | 0.578 | 0.715 | 0.841 | HFGCVYYGTLL [MET_Y1093_H1094Y] | 1.76 | 1.42 | 1.11 | 3.77 | 2.43 | 2.19 | 8.21 | 1.88 | 2.13 | 1.5 | 2.69 | 2.43 | 1.82
4 | 0.951 | 1.01 | 1.23 | HFPFQCHRQLF [F12_Y53_Y53C_YF] | 0.587 | 0.758 | 0.885 | 0.535 | 1.07 | 1.4 | 0.692 | 1.76 | 1.1 | 0.875 | 0.745 | 1.64 | 1.09
5 | 0.508 | 0.896 | 0.996 | HGDSAYHSQRH [ERBB3_Y1132_R1127H] | 0.276 | 0.479 | 0.789 | 0.327 | 0.648 | 0.425 | 0.824 | 1.2 | 1.03 | 0.63 | 0.808 | 1.22 | 1.32
6 | 0.586 | 0.716 | 1.18 | HGEAVYSRDCV [XPC_Y676_R671H] | 0.664 | 0.51 | 0.89 | 3.49 | 2.75 | 0.687 | 3.78 | 0.697 | 0.786 | 0.473 | 0.621 | 0.819 | 0.66
7 | 0.97 | 2.11 | 1.56 | HKGASYVFRLS [PTPRD_Y891] | 0.412 | 0.791 | 0.512 | 0.539 | 0.468 | 0.818 | 0.583 | 1 | 1.26 | 0.593 | 0.536 | 1.34 | 0.935
8 | 0.413 | 0.502 | 0.637 | HKNNNYEPNLF [BRCA2_Y57] | 0.62 | 0.89 | 0.539 | 0.577 | 0.61 | 0.508 | 0.579 | 0.739 | 0.477 | 1.95 | 1.2 | 0.767 | 0.563
9 | 0.544 | 0.883 | 0.808 | HLTLVYGGIFL [FBP1_Y259_R255L] | 0.699 | 0.849 | 0.507 | 2.72 | 2.09 | 1.15 | 2.71 | 1.61 | 1.96 | 0.743 | 0.745 | 1.81 | 1.4
10 | 0.614 | 0.597 | 0.985 | HLVLNYGVCIC [JAK2_Y613_V617I] | 0.67 | 0.92 | 0.535 | 0.551 | 0.484 | 1.46 | 0.576 | 1.52 | 1.68 | 1.39 | 0.607 | 2.09 | 1.52
11 | 0.544 | 0.75 | 0.869 | HLVSEYQQFQD [TUBB3_Y422_D417H_YF] | 0.338 | 0.916 | 0.336 | 0.577 | 0.524 | 0.54 | 0.728 | 1.07 | 0.917 | 0.819 | 0.741 | 0.974 | 0.559
12 | 0.941 | 1.01 | 0.869 | HLWRIYYDITD [MMP27_Y307] | 1.64 | 4.96 | 1.77 | 2.6 | 3.14 | 3.87 | 4.21 | 3.29 | 3.36 | 9.72 | 4.63 | 3.16 | 1.86
13 | 0.995 | 1.39 | 0.841 | HNLDFYKETTN [FGFR3_Y648_K650E_YF] | 0.656 | 0.496 | 0.662 | 0.731 | 0.53 | 0.915 | 1.14 | 1.23 | 1.48 | 0.891 | 0.645 | 1.5 | 1.14
14 | 6.05 | 2.83 | 0.784 | HNQDGYSFLSR [LDLR_Y845_P848L_YF] | 0.427 | 1 | 0.914 | 0.654 | 0.841 | 0.657 | 0.435 | 0.867 | 1.25 | 0.837 | 0.765 | 0.795 | 0.635
15 | 0.509 | 1 | 0.877 | HNVAIYEGFAL [ACTC1_Y168_P166A_YF] | 17 | 11.2 | 8.57 | 13.3 | 9.95 | 0.781 | 9.03 | 1.28 | 0.972 | 11.1 | 0.56 | 1.3 | 9.06
16 | 1 | 1.35 | 0.642 | HPFNSYTFPRL [PAK5_Y316_S312P_YF] | 0.461 | 0.64 | 1.41 | 1.19 | 0.474 | 0.786 | 0.602 | 1.3 | 0.995 | 0.683 | 0.531 | 0.957 | 1.05
17 | 0.445 | 0.743 | 0.668 | HQPGEYIFHAE [FLT3_Y416] | 0.795 | 1.12 | 0.74 | 0.915 | 1.21 | 1.28 | 0.852 | 1.77 | 1.29 | 0.887 | 0.819 | 1.29 | 1.11
18 | 0.536 | 0.683 | 0.956 | HRGSLYLAIEF [TEK_Y899_Y897S_YF] | 0.748 | 0.491 | 0.538 | 0.538 | 0.48 | 0.902 | 0.489 | 1.23 | 1.28 | 0.641 | 0.589 | 1.55 | 1.19
19 | 0.507 | 0.831 | 0.641 | HSGIFYKPESL [L2HGDH_Y103_YF] | 1.05 | 1.11 | 0.934 | 0.642 | 0.704 | 0.934 | 1.45 | 1.34 | 2.08 | 0.793 | 1.11 | 1.82 | 3.79
20 | 0.573 | 0.828 | 0.924 | IEDNKYTAREG [HCK_Y411_E410K] | 0.392 | 0.543 | 0.356 | 0.507 | 0.469 | 0.545 | 0.506 | 0.926 | 0.788 | 0.588 | 0.558 | 1.03 | 0.756
21 | 0.625 | 0.676 | 0.788 | IFHENYNAGTY [CFI_Y421] | 1.01 | 0.585 | 0.533 | 0.664 | 0.717 | 0.588 | 0.655 | 0.804 | 0.783 | 0.656 | 0.557 | 1.02 | 0.603
22 | 0.461 | 0.62 | 0.886 | IFLADCRIMEG [ALOX12B_Y318_Y318C_YF] | 0.594 | 0.664 | 0.5 | 0.579 | 0.662 | 1.02 | 0.525 | 1.33 | 1.2 | 0.803 | 0.654 | 1.48 | 0.894
23 | 0.987 | 1.12 | 1.16 | IFLADYRIMEG [ALOX12B_Y318_YF] | 0.453 | 0.523 | 0.478 | 0.408 | 0.421 | 0.787 | 0.528 | 0.689 | 0.782 | 0.454 | 0.814 | 0.984 | 0.641
24 | 0.546 | 0.588 | 0.832 | IFRAAYFGVFD [SLC25A4_Y191_YF] | 0.523 | 0.594 | 0.447 | 0.497 | 0.457 | 0.717 | 0.438 | 0.985 | 0.891 | 0.751 | 0.499 | 1.25 | 0.761
25 | 0.565 | 0.675 | 0.866 | IGERTYGQVYK [CDK13_Y716_G714R] | 0.392 | 0.416 | 0.408 | 9.16 | 3.64 | 0.41 | 6.07 | 0.507 | 0.516 | 0.409 | 0.381 | 0.555 | 0.536
26 | 0.371 | 0.606 | 0.757 | IGKAGYTDKVV [ENO1_Y236] | 0.365 | 0.395 | 0.305 | 0.359 | 0.388 | 0.508 | 0.335 | 0.531 | 0.632 | 0.398 | 0.456 | 0.642 | 0.481
27 | 0.561 | 0.861 | 0.977 | IGNGYYFRVFS [MYBPC3_Y1136] | 0.556 | 0.667 | 0.449 | 0.496 | 0.557 | 0.947 | 0.359 | 1.34 | 1.44 | 0.729 | 0.514 | 1.43 | 0.967
28 | 0.777 | 0.829 | 0.747 | IHSGIYFKPES [L2HGDH_Y102_YF] | 0.497 | 0.674 | 6.44 | 1.72 | 2.14 | 0.744 | 1.96 | 1.39 | 2.59 | 0.996 | 0.702 | 0.887 | 8.52
29 | 0.67 | 0.539 | 0.762 | IHSGIYYKPES [L2HGDH_Y102] | 0.943 | 2.02 | 11.7 | 6 | 5.38 | 1.38 | 4.54 | 1.45 | 3.48 | 3.93 | 1.53 | 0.752 | 18.7

— the supplement of paper PMC10065799, “High-throughput profiling of sequence recognition by tyrosine kinases and SH2 domains using bacterial peptide display” (eLife, 2023)
